{
  "source": "patent US4587340A",
  "about": "“Biopterin analogs” (Burroughs Wellcome Co., priority 1984, dated 1986)",
  "proteins": {"B1": {"name": "Tryptophan hydroxylase (Rattus norvegicus) (protein)", "chain": "MQPAMMMFSSKYWARRGLSLDSAVPEEHQILGGLTQNKATASKSEDKRSGKDTSESSKTAVVFSLKNEVGGLVRALRLFQEKHVNMLHIESRRSRRRSSEVEIFVDCECGKTEFNELIQLLKFQTTIVTLNPPDNIWTEEEELEDVPWFPRKISELDRCSHRVLMYGTELDADHPGFKDNVYRQRRKYFVDVAMGYKYGQPIPRVEYTEEETKTWGVVFRELSKLYPTHACREYLKNFPLLTKYCGYREDNVPQLEDVSMFLKERSGFTVRPVAGYLSPRDFLAGLAYRVFHCTQYVRHGSDPLYTPEPDTCHELLGHVPLLADPKFAQFSQEIGLASLGASDEDVQKLATCYFFTIEFGLCKQEGQLRAYGAGLLSSIGELKHALSDKACVKAFDPKTTCLQECLITTFQDAYFVSESFEEAKEKMRDFAKSITRPFSVYFNPYTQSIEILKDTRSIENVVQDLRSDLNTVCDALNKMNQYLGI", "notes": "The preparation of tryptophan hydroxylase was a crude 30,000xg supernatant; from tissue"}, "B2": {"name": "Dihydropteridine reductase (Homo sapiens) (protein)", "chain": "MAAAAAAGEARRVLVYGGRGALGSRCVQAFRARNWWVASVDVVENEEASASIIVKMTDSFTEQADQVTAEVGKLLGEEKVDAILCVAGGWAGGNAKSKSLFKNCDLMWKQSIWTSTISSHLATKHLKEGGLLTLAGAKAALDGTPGMIGYGMAKGAVHQLCQSLAGKNSGMPPGAAAIAVLPVTLDTPMNRKSMPEADFSSWTPLEFLVETFHDWITGKNRPSSGSLIQVVTTEGRTELTPAYF"}, "B3": {"name": "Phenylalanine hydroxylase (Rattus norvegicus) (protein)", "chain": "MAAVVLENGVLSRKLSDFGQETSYIEDNSNQNGAISLIFSLKEEVGALAKVLRLFEENDINLTHIESRPSRLNKDEYEFFTYLDKRTKPVLGSIIKSLRNDIGATVHELSRDKEKNTVPWFPRTIQELDRFANQILSYGAELDADHPGFKDPVYRARRKQFADIAYNYRHGQPIPRVEYTEEEKQTWGTVFRTLKALYKTHACYEHNHIFPLLEKYCGFREDNIPQLEDVSQFLQTCTGFRLRPVAGLLSSRDFLGGLAFRVFHCTQYIRHGSKPMYTPEPDICHELLGHVPLFSDRSFAQFSQEIGLASLGAPDEYIEKLATIYWFTVEFGLCKEGDSIKAYGAGLLSSFGELQYCLSDKPKLLPLELEKTACQEYSVTEFQPLYYVAESFSDAKEKVRTFAATIPRPFSVRYDPYTQRVEVLDNTQQLKILADSINSEVGILCNALQKIKS", "notes": "Phenylalanine hydroxylase was prepared from rat liver using hydrophobic chromatography; from tissue; host or cells: rat liver"}},
  "key": {"[1]": {"substrate": "C[C@H](O)[C@H](O)[C@H]1CNc2nc(N)[nH]c(=O)c2N1", "test": "cells, lysate or membranes named"}, "[2]": {"substrate": "COCC1CNc2nc(N)[nH]c(=O)c2N1", "test": "Tryptophan hydroxylase cofactor assay", "type": "biochemical"}, "[3]": {"substrate": "COCC1CNc2nc(N)[nH]c(=O)c2N1", "test": "Dihydropteridine reductase assay", "type": "biochemical", "conditions": "other: quinonoid dihydro form of the pterin", "experimental": "Dihydropteridine reductase was assayed by the method of Craine, et al., (J. Biol. Chem., 247, 6082 (1972))."}, "[4]": {"substrate": "C[C@H](O)[C@H](O)[C@H]1CNc2nc(N)[nH]c(=O)c2N1", "test": "purified protein, by the assay type"}, "[5]": {"substrate": "COCC1CNc2nc(N)[nH]c(=O)c2N1", "test": "Phenylalanine hydroxylase cofactor assay", "type": "biochemical", "conditions": "other: rat liver enzyme"}},
  "data": [
    {"protein": "B1", "values": [
      {"measurement": "Km", "setting": "[1]", "result": 82, "unit": "µM"},
      {"measurement": "Km", "setting": "[2]", "result": 103, "unit": "µM"}
    ]},
    {"protein": "B2", "values": [
      {"measurement": "Km", "setting": "[3]", "result": 7, "unit": "µM"},
      {"measurement": "Km", "setting": "[4]; other: quinonoid dihydro form of the pterin", "result": 1.8, "unit": "µM"}
    ]},
    {"protein": "B3", "values": [
      {"measurement": "Km", "setting": "[4]; other: rat liver enzyme", "result": 7.9, "unit": "µM"},
      {"measurement": "Km", "setting": "[5]", "result": 12.9, "unit": "µM"}
    ]}
  ]
}
